Laboratory results: patent US10562935B2, “Stapled peptides and uses thereof” (London Health Sciences Centre Research Inc., priority 2015, dated 2020)
Bridges are numbered along the chain shown (N, C = ends).

What was measured:
[1] = test system: IMR90 human fetal lung fibroblasts; assay: Fibrosis assay: active TGF-β levels in TGF-β treated fibroblasts (ELISA); assay type: cell-based; conditions: % inhibition relative to positive control
Method: Compounds 132, 133, 135, 150, 152, 157-161, 265-269, 275, 277, and 278 were evaluated for their ability to inhibit fibrosis. IMR90 human fetal lung fibroblasts were obtained from ATCC and maintained in DMEM supplemented with 10% fetal bovine serum. In order to examine the effect of peptides on myofibroblast differentiation, 80% confluent cultures were serum starved overnight prior to addition of TGF-β (2 ng/mL, R&D Systems). Cells were treated with TGF-β for 24 hours prior to addition of peptides (10 ng/mL). 48 hours after addition of peptides, culture supernatants were collected and levels of active TGF-β measured using commercially available TGF-β ELISA (Quantikine, R&D Systems).
Values are the Mean and SDM n=3 replicates. *p<0.05, **p<0.01, ***p<0.001 when compared to the +TGFβ1 control. In FIG. 47, where bars are labeled with two compound numbers (“133/150” and “135/152”) this means that the data were pooled for the indicated compounds, i.e., for the non-acetylated and acetylated versions of the indicated peptides.

[2] = test system: RHAMM-overexpressing (LR21) cells; assay: Cell migration assay (Boyden chamber, Chemicon ECM510); assay type: cell-based; conditions: for inhibition of cell migration (in words): 10 ng/mL peptide, 20 hours, compared to 30% serum control; for Migration (% inhib.): % inhibition relative to positive control
Method: Compounds 132, 133, 150-152, 156-161, 265-269, 275, 277, and 278 were evaluated for their ability to inhibit cell migration. Cell migration assays were performed using Chemicon Assay Kits (ECM510 (Migration); Billerica, Mass., USA) according to the manufacturer's protocol. Briefly, sub-confluent cultures of RHAMM-overexpressing (LR21) cells were serum starved overnight. 7.5×10^4 cells were then plated in the upper chamber of a Boyden chamber. either in the presence or absence of 10 ng/mL of peptide. 30% fetal bovine serum in DMEM was used as the chemo-attractant in the lower chamber. The number of cells that had crossed the membrane after 20 hours was assessed using the CYQUANT GR Dye and lysis buffer solution provided in the kit. Fluorescence was measured with a fluorescent plate reader using a 480/520 nm filter set.
Values are the mean and SDM of n=3 replicates. *p<0.05, **p<0.01. All statistics compare to 30% serum control. In FIGS. 41-43, where bars are labeled with two compound numbers (“133/150” and “135/152”) this means that the data were pooled for the indicated compounds, i.e., for the non-acetylated and acetylated versions of the indicated peptides.

NF-κB = assay: Inflammation assay: NF-κB inducible SEAP reporter in RAW-Blue macrophages stimulated with PAM3CSK4; assay type: cell-based, murine; conditions: for inhibition of inflammation (SEAP / NF-κB activity, in words): 10 ng/mL peptide with 200 ng/mL PAM3CSK4, 18 hours, compared to +PAM3
Method: Compounds 132, 133, 135, 150, 152, 157-161, 265-269, 275, 277, and 278 were evaluated for their ability to inhibit inflammation. To determine the effect of the peptides on inflammation, commercially available murine RAW 264.7 macrophages carrying a secreted embryonic alkaline phosphatase (SEAP) reporter that is inducible by NF-κB (RAW-Blue; InvivoGen, San Diego, Calif., USA) were used. Cells were grown to 80% confluence in DMEM containing 4.5 g/L glucose, 10% heat-inactivated fetal bovine serum, 2 mM L-glutamine, 50 μg/mL penicillin/streptomycin, 100 μg/mL Normocin (InvivoGen) at 37° C. in 5% CO2. For peptide screening experiments, cells were scraped in growth medium, counted, and plated to flat-bottom 96-well plates at a density of 5×10^4 cells/well either in the presence or absence (control) of 200 ng/mL TLR1/TLR2 agonist PAM3CSK4 (InvivoGen). Peptides were added in 6 replicate wells at a dose of 10 ng/mL in the presence of PAM3CSK4. After 18 hours of stimulation, SEAP concentrations (indicating NF-κB activity) were measured in the supernatants collected from the RAW-Blue cells using QUANTI-BLUE reagent (InvivoGen). After 20 minutes of incubation at 37° C., SEAP levels were determined using spectrophotometry at a wavelength of 630 nm.
Values are the mean and SDM of n=3 replicates. *p<0.05 and ***p<0.001 compared to +PAM3. In FIGS. 44 and 45, where bars are labeled with two compound numbers (“133/150” and “135/152”) this means that the data were pooled for the indicated compounds, i.e., for the non-acetylated and acetylated versions of the indicated peptides.

[3] = Circular dichroism (CD) spectroscopy of linear and stapled peptides in water or 40% TFE/water (Example 3); assay type: physicochemical; conditions: for [0]208 mean residue ellipticity: λ = 208 nm; for [0]222 mean residue ellipticity: λ = 222 nm
Method: CD spectra were obtained on a Jasco J-810 spectropolarimeter and recorded in the range of 180-260 nm. Peptide solutions were prepared with a 0.1M phosphate buffer solution to a concentration of 0.5 mM. The measurements were performed in quartz cuvettes with a path length of 1 mm and a scanning speed of 10-50 nm/min. Five individual data points were averaged by the instrument in order to obtain the reported CD spectrum. The measurements were carried out at 20° C. A blank solution of 0.1M phosphate buffer solution was run before every measurement in order to baseline correct for any UV-interference observed from the buffer.
CD data for the 14- and 15-mer peptides containing HABD2 (VSKLRSQLVKRKQN, SEQ ID NO: 2) and HABD1 (NLKQKIKHVVKLKDE, SEQ ID NO: 4) and cyclized derivatives thereof in water or 40% TFE/water are provided below in Tables 8 (water) and 9 (40% TFE/water). Tables 8 and 9 provide the mean residue ellipicity ([θ] deg cm^2 dmol^−1) at λ=222 and 208 nm for each peptide and ratios of ellipticities at 222/208. Each of the peptides was acetylated at its amino terminus and amidated at its carboxy terminus.
CD data for linear peptides having the sequences […] (SEQ ID NO: 5) and […] (SEQ ID NO: 6) and cyclized derivatives thereof in water or 40% TFE/water are provided below in Tables 12 (water) and 13 (40% TFE/water). Tables 12 and 13 provide the mean residue ellipicity ([0] deg cm^2 dmol^−1) at λ=222 and 208 nm for each peptide and ratios of ellipticities at 222/208. Each of the peptides was acetylated at its amino terminus and amidated at its carboxy terminus.
Circular Dichroism (CD) spectroscopy is a tool that is used to study the secondary structure characteristics of a compound. Peptides and proteins can fold into organized structures, such as alpha helices and beta sheets, which are the result of complex hydrogen bonding and other interactions between amino acid side chains, as well as adopt a random coil formation, which lacks much of the organization of the other two structures. The CD spectrum of an alpha helix is characterized by two local minima at 208 nm and 222 nm. The ratio of the values of the molar ellipticities at these wavelengths ([θ]222/[θ]208) is a strong indication of the relative helicity of a compound; a compound is more helical when the ratio of these two values approaches 1.0. Synthetic constraints introduced to the peptide backbone can force a peptide chain to increase its helical character. These constraints can be introduced by staples, of varying types, which allow cyclization of the peptide backbone to take place.

[4] = [θ]222/[θ]208 ratio in water, summary tables 15, 17, 19
[5] = as repeated in tables 16, 18, 20

Substance | Fibrosis (% inhib.) [1] [% inhib.] | inhibition of cell migration (in words) [2] | Migration (% inhib.) [2] [% inhib.] | inhibition of inflammation (SEAP / NF-κB activity, in words) (NF-κB) | Inflammation (% Inhib.) (NF-κB; % inhibition relative to positive control) | [0]208 mean residue ellipticity at λ=208 nm ([3]; 40% TFE/water) [deg cm^2 dmol^−1] | [0]222/[0]208 ratio of ellipticities ([3]; 40% TFE/water) | [0]222 mean residue ellipticity at λ=222 nm ([3]; 40% TFE/water) [deg cm^2 dmol^−1] | [θ]222/[θ]208 ratio of ellipticities [3, 4] | [θ]222/[θ]208 ratio of ellipticities [3, 5] | [0]208 mean residue ellipticity at λ=208 nm ([3]; water) [deg cm^2 dmol^−1] | [0]222/[0]208 ratio of ellipticities ([3]; water) | [0]222 mean residue ellipticity at λ=222 nm ([3]; water) [deg cm^2 dmol^−1] | [0]222/[0]208 ratio of ellipticities ([3]; in 40% TFE/water) | [0]222/[0]208 ratio of ellipticities ([3]; in water) | alpha-helical character by CD (in words) ([3]; in water) | [0]208 mean residue ellipticity ([3]; in 40% TFE/water) [deg cm^2 dmol^−1] | [0]208 mean residue ellipticity ([3]; in water) [deg cm^2 dmol^−1] | [0]222 mean residue ellipticity ([3]; in 40% TFE/water) [deg cm^2 dmol^−1] | [0]222 mean residue ellipticity ([3]; in water) [deg cm^2 dmol^−1]
Ac-KIKHVVKLKDENSQLKSEVSKLRSQLVKRK-NH2 [Compound 265] | 0 | significantly inhibit cell migration | 63 | significantly inhibited inflammation | 18 | -2.72E04 | 0.80 | -2.18E04 | 0.40 | 0.40 | -2.73E+04 | 0.40 | -1.09E+04 | – | – | – | – | – | – | –
Ac-(cyclo-5,9)-VSKL[ESQLK]KRKQN-NH2 (Ac-VSKLESQLKKRKQN-NH2; lactam 5-9; SMILES CC(=O)N[C@H](C(=O)N[C@@H](CO)C(=O)N[C@@H](CCCCN)C(=O)N[C@@H](CC(C)C)C(=O)N[C@H]1CCC(=O)NCCCC[C@@H](C(=O)N[C@@H](CCCCN)C(=O)N[C@@H](CCCNC(=N)N)C(=O)N[C@@H](CCCCN)C(=O)N[C@@H](CCC(N)=O)C(=O)N[C@@H](CC(N)=O)C(N)=O)NC(=O)[C@H](CC(C)C)NC(=O)[C@H](CCC(N)=O)NC(=O)[C@H](CO)NC1=O)C(C)C) [Compound 151] | – | significantly inhibit cell migration | 59 | – | – | – | – | – | 0.70 | 0.70 | – | – | – | 0.82 | 0.70 | alpha-helical character equal to that of the linear peptide | -1.62E+04 | -9.25E+03 | -1.33E+04 | -6.45E+03
Ac-(cyclo-6,10)-VSKLR[EQLVK]RKQN-NH2 (Ac-VSKLREQLVKRKQN-NH2; lactam 6-10; SMILES CC(=O)N[C@H](C(=O)N[C@@H](CO)C(=O)N[C@@H](CCCCN)C(=O)N[C@@H](CC(C)C)C(=O)N[C@@H](CCCNC(=N)N)C(=O)N[C@H]1CCC(=O)NCCCC[C@@H](C(=O)N[C@@H](CCCNC(=N)N)C(=O)N[C@@H](CCCCN)C(=O)N[C@@H](CCC(N)=O)C(=O)N[C@@H](CC(N)=O)C(N)=O)NC(=O)[C@H](C(C)C)NC(=O)[C@H](CC(C)C)NC(=O)[C@H](CCC(N)=O)NC1=O)C(C)C) [Compound 152] | – | significantly inhibit cell migration | – | significantly inhibited inflammation | – | – | – | – | – | 0.61 | – | – | – | 0.70 | 0.61 | – | -1.50E+04 | -7.90E+03 | -1.19E+04 | -4.85E+03
Ac-(cyclo-7,11)-VSKLRS[ELVKK]KQN-NH2 (Ac-VSKLRSELVKKKQN-NH2; lactam 7-11; SMILES CC(=O)N[C@H](C(=O)N[C@@H](CO)C(=O)N[C@@H](CCCCN)C(=O)N[C@@H](CC(C)C)C(=O)N[C@@H](CCCNC(=N)N)C(=O)N[C@@H](CO)C(=O)N[C@H]1CCC(=O)NCCCC[C@@H](C(=O)N[C@@H](CCCCN)C(=O)N[C@@H](CCC(N)=O)C(=O)N[C@@H](CC(N)=O)C(N)=O)NC(=O)[C@H](CCCCN)NC(=O)[C@H](C(C)C)NC(=O)[C@H](CC(C)C)NC1=O)C(C)C) [Compound 153] | – | – | 0 | – | – | – | – | – | 0.54 | 0.54 | – | – | – | 0.74 | 0.54 | decreased helicity | -1.02E+04 | -6.79E+03 | -8.53E+03 | -3.68E+03
